Assay results from the Immune Epitope Database (IEDB).
pKd: −log10 of the molar value.

Columns and labels:
HLA-A*01:01 [1] = test: IEDB peptide-MHC binding, purified MHC/competitive/radioactivity; filed as Kd, often an IC50 or EC50 that approximates it; ≥ and ≤ were set here for values at or beyond the usual limits of such assays
HLA-A*23:01 = test: as above
HLA-A*24:02 = test: as above
HLA-A*26:01 = test: as above
HLA-A*29:02 = test: as above
HLA-A*30:02 = test: as above
HLA-A*03:01 [2] = test: IEDB peptide-MHC binding, purified MHC/direct/fluorescence; filed as Kd, often an IC50 or EC50 that approximates it; ≥ and ≤ were set here for values at or beyond the usual limits of such assays
HLA-A*31:01 [3] = test: as above
HLA-A*11:01 [4] = test: as above
HLA-B*27:05 = test: as above; settings: source organism: Homo sapiens
HLA-A*01:01 [5] = test: as above
HLA-B*15:01 = test: as above
HLA-A*02:01 [6] = test: as above; settings: source organism: Bacillus licheniformis
HLA-A*69:01 = test: as above
HLA-A*02:01 [7] = test: IEDB peptide-MHC binding, purified MHC/competitive/fluorescence; filed as Kd, often an IC50 or EC50 that approximates it; ≥ and ≤ were set here for values at or beyond the usual limits of such assays
HLA-B*07:02 = test: IEDB peptide-MHC binding, purified MHC/direct/fluorescence; filed as Kd, often an IC50 or EC50 that approximates it; ≥ and ≤ were set here for values at or beyond the usual limits of such assays; settings: source organism: Homo sapiens
HLA-A*33:01 = test: IEDB peptide-MHC binding, purified MHC/competitive/radioactivity; filed as Kd, often an IC50 or EC50 that approximates it; ≥ and ≤ were set here for values at or beyond the usual limits of such assays
HLA-A*68:01 = test: as above
HLA-B*58:01 = test: IEDB peptide-MHC binding, purified MHC/direct/fluorescence; filed as Kd, often an IC50 or EC50 that approximates it; ≥ and ≤ were set here for values at or beyond the usual limits of such assays; settings: source organism: Mycobacterium tuberculosis variant bovis BCG str. Pasteur 1173P2
HLA-A*03:01 [8] = test: IEDB peptide-MHC binding, purified MHC/competitive/radioactivity; filed as Kd, often an IC50 or EC50 that approximates it; ≥ and ≤ were set here for values at or beyond the usual limits of such assays; settings: source organism: Vaccinia virus WR
HLA-A*11:01 [9] = test: as above; settings: source organism: Vaccinia virus WR
HLA-A*31:01 [10] = test: as above; settings: source organism: Vaccinia virus WR
HLA-B*40:01 = test: IEDB peptide-MHC binding, purified MHC/direct/fluorescence; filed as Kd, often an IC50 or EC50 that approximates it; ≥ and ≤ were set here for values at or beyond the usual limits of such assays; settings: source organism: Mycobacterium tuberculosis
[11] = source organism: SARS coronavirus Tor2
[12] = source organism: Xanthobacter autotrophicus
[13] = source organism: Burkholderia lata
[14] = source organism: Bacillus licheniformis
[15] = source organism: Mammarenavirus brazilense
[16] = source organism: Lassa virus Josiah
[17] = source organism: Mammarenavirus whitewaterense
[18] = source organism: Vaccinia virus WR
[19] = source organism: Mammarenavirus machupoense
[20] = source organism: Cryptosporidium parvum
[21] = source organism: Giardia intestinalis
[22] = source organism: Mycoplasmoides genitalium
[23] = source organism: Lassa virus GA391
[24] = source organism: Triticum aestivum

Sequence | pKd (HLA-A*01:01 [1]; [11]) | pKd (HLA-A*23:01; [11]) | pKd (HLA-A*24:02; [11]) | pKd (HLA-A*26:01; [11]) | pKd (HLA-A*29:02; [11]) | pKd (HLA-A*30:02; [11]) | also measured
TYTEIEPKL | ≤ 4.11 | ≤ 4.67 | ≤ 4.53 | ≤ 4.11 | 4.91 | ≤ 4.10 | 
ISAGFSLWIY | 7.28 | ≤ 4.54 | ≤ 4.15 | 5.96 | 8.64 | 8.02 | 
GVWTRDGNR |  |  |  |  |  |  | pKd (HLA-A*03:01 [2]; [12]): ≤ 4.70; pKd (HLA-A*31:01 [3]; [12]): 7.23
SINDPRWGR |  |  |  |  |  |  | pKd (HLA-A*03:01 [2]; [13]): ≤ 4.70; pKd (HLA-A*31:01 [3]; [13]): 7.56
FYLYLTFYF | 5.43 | ≤ 4.53 | ≤ 4.11 | 5.69 | ≤ 4.12 | ≤ 4.01 | 
ARLFGIRAK |  |  |  |  |  |  | pKd (HLA-A*03:01 [2]; source organism: Homo sapiens): 5.91; pKd (HLA-A*11:01 [4]; source organism: Homo sapiens): 5.37; pKd (HLA-A*31:01 [3]; source organism: Homo sapiens): 5.53; pKd (HLA-B*27:05): 5.98
FIAQSKGLY | 6.33 | ≤ 4.11 | ≤ 4.11 | 7.05 | 8.31 | 7.61 | 
SYATHHDKF | ≤ 4.40 | ≤ 4.04 | ≤ 3.98 | ≤ 4.11 | ≤ 4.65 | ≤ 4.07 | 
ATDFKFAMY |  |  |  |  |  |  | pKd (HLA-A*01:01 [5]; source organism: Homo sapiens): 6.87; pKd (HLA-A*03:01 [2]; source organism: Homo sapiens): 5.11; pKd (HLA-A*11:01 [4]; source organism: Homo sapiens): 5.62; pKd (HLA-B*15:01; source organism: Homo sapiens): 5.39
NSGPDDQIGY | 6.00 | ≤ 4.15 | ≤ 4.47 | 5.07 | 5.13 | 5.17 | 
PTLVPQEHY | 5.04 | ≤ 4.11 | ≤ 4.11 | ≤ 3.99 | 4.96 | 5.35 | 
MSFLEKDAPY | 7.19 | ≤ 4.15 | ≤ 4.15 | 6.58 | 6.65 | 8.51 | 
VYHITVSQI | ≤ 4.50 | 7.01 | 7.58 | ≤ 4.11 | ≤ 4.54 | ≤ 4.09 | 
ALMEITSRY |  |  |  |  |  |  | pKd (HLA-A*01:01 [5]; [14]): 5.99; pKd (HLA-A*02:01 [6]): 5.32; pKd (HLA-A*03:01 [2]; [14]): 6.59; pKd (HLA-A*11:01 [4]; [14]): 6.22; pKd (HLA-A*31:01 [3]; [14]): 5.28; pKd (HLA-A*69:01; [14]): 4.93; pKd (HLA-B*15:01; [14]): 7.04
QMISSIDRFF |  |  |  |  |  |  | pKd (HLA-A*23:01; [15]): 6.12; pKd (HLA-A*24:02; [15]): 5.33; pKd (HLA-A*29:02; [15]): 5.73
RMYIFFASF | ≤ 4.68 | 7.12 | 6.97 | 5.15 | 5.68 | 5.91 | 
GIDVTDLFA |  |  |  |  |  |  | pKd (HLA-A*01:01 [1]; [16]): 6.58; pKd (HLA-A*23:01; [16]): ≤ 4.16; pKd (HLA-A*24:02; [16]): ≤ 4.11; pKd (HLA-A*26:01; [16]): ≤ 4.11; pKd (HLA-A*29:02; [16]): ≤ 4.10; pKd (HLA-A*30:02; [16]): ≤ 4.39
DHHFTPQII |  |  |  |  |  |  | pKd (HLA-A*01:01 [1]; [17]): 7.21; pKd (HLA-A*23:01; [17]): 4.95; pKd (HLA-A*24:02; [17]): ≤ 4.36; pKd (HLA-A*26:01; [17]): ≤ 4.11; pKd (HLA-A*29:02; [17]): 5.53; pKd (HLA-A*30:02; [17]): ≤ 4.29
TLFPGDDDL |  |  |  |  |  |  | pKd (HLA-A*02:01 [7]; [18]): 6.40
LPRWPPPQL |  |  |  |  |  |  | pKd (HLA-A*69:01; source organism: Homo sapiens): 5.26; pKd (HLA-B*07:02): 6.79
NMKWKFNAL |  |  |  |  |  |  | pKd (HLA-A*02:01 [7]; source organism: Campylobacter jejuni subsp. jejuni NCTC 11168 = ATCC 700819): ≤ 4.70
ILNDEQLNL |  |  |  |  |  |  | pKd (HLA-A*02:01 [7]; source organism: Vaccinia virus Tian Tan): 9.15
NYFKKVDGI | ≤ 4.29 | 4.94 | ≤ 4.69 | ≤ 4.11 | 5.60 | 4.93 | 

Sequence | pKd (HLA-A*01:01 [1]; [11]) | pKd (HLA-A*23:01; [11]) | pKd (HLA-A*24:02; [11]) | pKd (HLA-A*26:01; [11]) | pKd (HLA-A*29:02; [11]) | pKd (HLA-A*30:02; [11]) | also measured
QLFKPLTKK |  |  |  |  |  |  | pKd (HLA-A*31:01 [3]; source organism: SARS-CoV1): 6.01; pKd (HLA-A*33:01; [11]): ≤ 4.11; pKd (HLA-A*68:01; [11]): 4.77
QYIKWPWYVW | ≤ 4.49 | 9.11 | 8.61 | ≤ 4.16 | 5.41 | 4.97 | 
YSELRPDTRY | 8.21 | ≤ 4.15 | ≤ 4.44 | 4.92 | 6.85 | 6.78 | 
AAAAPYAGW |  |  |  |  |  |  | pKd (HLA-B*58:01): 7.57
NTLISSDGAR |  |  |  |  |  |  | pKd (HLA-A*03:01 [8]): 5.63; pKd (HLA-A*11:01 [9]): 6.44; pKd (HLA-A*29:02; [18]): ≤ 4.33; pKd (HLA-A*31:01 [10]): 6.59; pKd (HLA-A*33:01; [18]): 6.54; pKd (HLA-A*68:01; [18]): 8.22
LCMLNNSFYY |  |  |  |  |  |  | pKd (HLA-A*01:01 [1]; [19]): 6.21; pKd (HLA-A*23:01; [19]): ≤ 4.53; pKd (HLA-A*24:02; [19]): ≤ 4.32; pKd (HLA-A*26:01; [19]): ≤ 4.16; pKd (HLA-A*29:02; [19]): 8.27; pKd (HLA-A*30:02; [19]): 7.93
RYNLDPDSI |  |  |  |  |  |  | pKd (HLA-A*23:01; [15]): 5.13; pKd (HLA-A*24:02; [15]): 4.75; pKd (HLA-A*29:02; [15]): ≤ 4.47
MIRTWRQNK |  |  |  |  |  |  | pKd (HLA-A*03:01 [2]; [20]): 6.65; pKd (HLA-A*31:01 [3]; [20]): 6.44
SWFITQRNF | ≤ 4.11 | 5.41 | ≤ 4.40 | ≤ 4.11 | 7.79 | 9.67 | 
ACADGTRHTY | 5.67 | ≤ 4.15 | ≤ 4.15 | ≤ 4.06 | 5.21 | 7.48 | 
SLRPNDIVY |  |  |  |  |  |  | pKd (HLA-A*03:01 [2]; [21]): 4.87; pKd (HLA-A*11:01 [4]; [21]): 5.15; pKd (HLA-B*15:01; [21]): 6.82
KLGIGNSPV |  |  |  |  |  |  | pKd (HLA-A*02:01 [7]; source organism: Vaccinia virus Copenhagen): 8.22
VTFQGKFKK |  |  |  |  |  |  | pKd (HLA-A*31:01 [3]; source organism: SARS-CoV1): 7.15; pKd (HLA-A*33:01; [11]): 5.07; pKd (HLA-A*68:01; [11]): 7.88
YSDIPRLKK |  |  |  |  |  |  | pKd (HLA-A*01:01 [5]; [22]): 5.79; pKd (HLA-A*03:01 [2]; [22]): 6.43; pKd (HLA-A*11:01 [4]; [22]): 7.03; pKd (HLA-A*31:01 [3]; [22]): 6.12; pKd (HLA-A*69:01; [22]): 6.38
TLAAAANSY |  |  |  |  |  |  | pKd (HLA-B*15:01; source organism: Mycobacterium tuberculosis C): 6.24
YCNYSRYWYL |  |  |  |  |  |  | pKd (HLA-A*01:01 [1]; [23]): ≤ 4.15; pKd (HLA-A*23:01; [23]): 5.94; pKd (HLA-A*24:02; [23]): 5.48; pKd (HLA-A*26:01; [23]): ≤ 4.16; pKd (HLA-A*29:02; [23]): 5.08; pKd (HLA-A*30:02; [23]): 4.92
LEEIGILLL |  |  |  |  |  |  | pKd (HLA-B*40:01): 7.96
SIKRNYPYLF |  |  |  |  |  |  | pKd (HLA-A*23:01; [15]): 6.12; pKd (HLA-A*24:02; [15]): 5.99; pKd (HLA-A*29:02; [15]): 5.63
ETLLPLTQY | ≤ 4.48 | ≤ 4.11 | ≤ 4.11 | 7.36 | 6.58 | 5.37 | 
QYPSGQGSF |  |  |  |  |  |  | pKd (HLA-A*01:01 [1]; [24]): ≤ 4.21; pKd (HLA-A*23:01; [24]): ≤ 4.45; pKd (HLA-A*24:02; [24]): 5.47; pKd (HLA-A*26:01; [24]): ≤ 4.31; pKd (HLA-A*29:02; [24]): 6.76; pKd (HLA-A*30:02; [24]): 8.93
TTTGIGYQPY | 6.90 | ≤ 4.15 | ≤ 4.15 | 7.25 | 8.06 | 6.69 | 
DYLVSTQEF | ≤ 4.11 | 4.73 | ≤ 4.36 | 4.84 | 6.59 | 5.47 | 
